Assay results: the supplement of paper PMC10724198
± gives the standard deviation of the averaged measurements.

test system: Saccharomyces cerevisiae; assay: protein stability index of tFT-peptide fusion (C-terminal peptide) (PSI (0-1 scale)); higher = more stable (slower turnover); conditions: genetic background: wild type; temperature: 30 C
Protocol: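 Multiplexed protein stability (MPS) profiling in S. cerevisiae. Random 12-aa peptides (tFT-X12 library) are fused to the C-terminus of a sfGFP-mCherry tandem fluorescent timer, after mCherry and a GGGS linker. Cells are FACS-sorted into 8 mCherry/sfGFP bins and deep-sequenced. The protein stability index (PSI) is the read-weighted bin average, scaled from 0 (unstable) to 1 (stable). Only peptides with >10 reads are reported; cells were grown at 30 °C in SC-His with glucose.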
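Note: PSI is a weighted mean of sequencing reads over stability bins, variants kept only with over 10 reads, mCherry proximal and sfGFP distal, peptide attached via GGGS linker.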

Sequence	protein stability index
APYLPACALSSL	0.706 ± 0.015
APYSGSAMVIPG	0.713 ± 0.028
AQAPSPGRAPSP	0.7158 ± 0.0022
AQFFQALATYPI	0.677 ± 0.022
AQHTGFMRELRR	0.7278 ± 0.0016
AQPLARTALPRR	0.775 ± 0.019
AQRKSVLSPDLC	0.67 ± 0.035
AQTEADGRAHDP	0.6344 ± 0.0058
ARADIQIACIIE	0.6418 ± 0.00089
ARCSDPSAATHT	0.706 ± 0.038
AREVGGRAGRRE	0.661 ± 0.012
ARFFPLPIPPRS	0.758 ± 0.078
ARGFSAGAIGVG	0.646 ± 0.1
ARGGGRSEGGEG	0.7151 ± 0.0024
ARIGVQRFSGVV	0.708 ± 0.019
ARLHMSLFRPPA	0.646 ± 0.011
ARLSLEGASRGE	0.653 ± 0.023
ARMRQNDKHDGS	0.662 ± 0.011
ARPDTSPPGTSL	0.664 ± 0.044
ARPFCPLYTPRG	0.686 ± 0.043
ARQPMHYRITGC	0.644 ± 0.063
ARRYVPPRWGSL	0.679 ± 0.065
ARSDRLPNILPY	0.679 ± 0.071
ARSDSPRATQAN	0.697 ± 0.06
ARSFALLGCRRS	0.677 ± 0.042

Sequence	protein stability index
ARTGRELVLPKG	0.663 ± 0.0089
ARWQALTHLIVL	0.6151 ± 0.0051
ASCAPGDVTQVG	0.718 ± 0.038
ASCGTAGPCVPF	0.708 ± 0.019
ASCHFSILPTRL	0.67 ± 0.032
ASCLNYSSNRRP	0.617 ± 0.064
ASCRRGGAGCLR	0.735 ± 0.043
ASFLRPQMSLPF	0.618 ± 0.0095
ASFRPDGYTYSV	0.622 ± 0.071
ASGAPGRGRGVV	0.697 ± 0.083
ASGLVVDYTLIA	0.671 ± 0.025
ASGRARVIGVCR	0.704 ± 0.029
ASHDIFWAGSRE	0.766 ± 0.092
ASLFFSLCSLSE	0.694 ± 0.011
ASLPPPFTMLLL	0.686 ± 0.051
ASLSKLTLKVTV	0.586 ± 0.057
ASLTPFFLCSIF	0.649 ± 0.0073
ASPALPAPRSAP	0.704 ± 0.057
ASPRLTGCPNPR	0.6863 ± 0.002
ASRIGHIGQPVI	0.6889 ± 0.00017
ASRRMGGHNALS	0.705 ± 0.013
ASSPSPPTPPPP	0.647 ± 0.056
ASSTSSPPPLPP	0.666 ± 0.032
ASTLFDCHVLGA	0.697 ± 0.039
ASVVEVSSLSLL	0.629 ± 0.052

Sequence	protein stability index
ATIRNSMPYHFN	0.646 ± 0.044
ATLGTVTLAFSV	0.634 ± 0.044
ATLSSVSSGSSF	0.647 ± 0.12
ATNCERLHNPHL	0.727 ± 0.0034
ATPTQADRMPVT	0.721 ± 0.1
ATSFHALPVFTS	0.644 ± 0.053
ATSPTSGGIHTA	0.662 ± 0.0092
ATYPVPMPPTPQ	0.734 ± 0.037
AVAFELCDLTRG	0.702 ± 0.038
AVCSLTLGFGWW	0.755 ± 0.034
AVDSGSLERIRM	0.69037 ± 0.00042
AVFGLEAVMRRG	0.753 ± 0.15
AVFQEIPFGIPP	0.696 ± 0.073
AVGGVFVSSGGL	0.691 ± 0.013
AVGTAPVFLWFG	0.679 ± 0.0083
AVISDVSLKPNF	0.673 ± 0.082
AVISSSFFGSSY	0.721 ± 0.076
AVLPFFPCFSAF	0.69 ± 0.038
AVLSVGHWGSGL	0.69 ± 0.028
AVSESSRRTQFF	0.7039 ± 0.0025
AVSLTLCISSIS	0.5869 ± 0.0052
AVVRVSLPSTVV	0.667 ± 0.059
AVYIEFLYPRRL	0.644 ± 0.039
AWEWMTVQVVRG	0.586 ± 0.012
AWGGGEWGGCGR	0.772 ± 0.027

Sequence	protein stability index
AWGGSWWSLGGM	0.6715 ± 0.0056
AWGSVVTFLGLR	0.737 ± 0.054
AWGVCRPGGRGG	0.681 ± 0.035
AWMSRTRSKNLR	0.717 ± 0.048
AWPGPKMCWVVK	0.6294 ± 0.0023
AWRVVRIFFCGG	0.72 ± 0.15
AWRWGVGVGSGS	0.735 ± 0.17
AYRISCAGHIMA	0.684 ± 0.053
AYRRPKFLEGTF	0.694 ± 0.1
AYTSVSVDHLIH	0.673 ± 0.0069
CAGVGGGLVSLG	0.688 ± 0.082
CASSFSFFRFPP	0.586 ± 0.019
CAVLGGGGVWGA	0.596 ± 0.035
CAVSFPLCLLPP	0.6439 ± 0.0036
CCARRWLNFEYW	0.72 ± 0.032
CCGQRYACVFQT	0.651 ± 0.029
CCKMITYKEGRE	0.692 ± 0.06
CCLGVFFGVGGL	0.772 ± 0.12
CCLNHIFECLTL	0.7012 ± 0.0066
CCLSCGRPTLGS	0.731 ± 0.067
CCRICCCLLGTH	0.658 ± 0.032
CDGGCSWGGLMG	0.795 ± 0.071
CDRNLSYGAGSV	0.705 ± 0.049
